Assay [1] concerns the target Cnu (E. coli). Nature of the assay: other fluorescence titration; ~2 uM Cnu with ~30 nM to ~140 uM H-NS; W67 emission on excitation at 295 nm, intensity-averaged wavenumber; Hill fit; apparent; 170 mM ionic strength, sodium phosphate pH 8.0; temperatures from 5 to 37 °C.
Assay [2] concerns the target Cnu (E. coli). The experiment in a line: other fluorescence titration; ~2 uM Cnu with ~30 nM to ~140 uM H-NS; W67 emission on excitation at 295 nm, intensity-averaged wavenumber; Hill fit; apparent; 500 mM ionic strength, sodium phosphate pH 8.0; temperatures from 5 to 37 °C.
Assay [3] addresses H-NSW, variant of H-NS with a tryptophan at its C-terminus (E. coli) (UniProt P0ACF8). The experiment in a line: fluorescence polarisation; steady-state tryptophan anisotropy; 2 uM H-NSW with ~30 nM to ~140 uM H-NS (tyrosine variant); excitation 295 nm; 170 mM ionic strength, 5 °C and 37 °C; apparent; fit to monomer-dimer (1:1) equilibrium. For orientation: Fluorescence polarisation rises when a labelled molecule tumbles more slowly, as on binding a larger partner.

A further assay concerns the target T1, H-NS (Escherichia coli, UniProt P0ACF8).
T1 chain: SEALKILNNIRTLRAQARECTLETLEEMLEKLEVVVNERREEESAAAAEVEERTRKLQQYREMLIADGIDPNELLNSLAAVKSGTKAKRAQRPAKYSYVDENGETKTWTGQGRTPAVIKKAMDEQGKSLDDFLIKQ
Nature of the assay: fluorescence anisotropy.

B1: H-NS (residues 1-59 of the N-terminal domain), the tyrosine variant (domain or fragment)
chain: MSEALKILNNIRTLRAQARESTLETLEEMLEKLEVVVNERREEESAAAAEVEERTRKLY
With B1, in the assay with Cnu (E. coli) [1], the fold increase in affinity against 500 mM IS was 4 fold. Further, the K1/2 with Cnu (E. coli) [2] worked out at 100 µM. In assay [3], the Kd fell in the range of 100 to 150 µM and the minimum oligomerization concentration came out at 10 µM.

B2: Cnu (protein)
chain: MTVQDYLLKFRKISSLESLEKLYDHLNYTLTDDQELINMYRAADHRRAELVSGGRLFDLGQVPKSVWHYVQ
B2: the Kd with H-NS is approximately 125 µM.

The values are drawn from article PMC6491433 (2019).
